This is an account of results in patent publication US20160274129.

The labels stand for the following.
B1: Cc95FX (protein)
chain: MAPSRANTSVIVVGGGGTIGSSTALHLVRSGYTPSNITVLDAYPIPSSQSAGNDLNKIMGIRLRNKVDLQLSLEARQMWREDDLFKEYFHNTGRLDCAHGEEGLADLRQAYQALLDANAGLEETTEWLDSEDEILKKMPLLSRDQIKGWKAVYSQDGGWLAAAKAINAIGEYLRAQGVKFGFGGAGSFKQPLLAEGVCIGVETVDGTRYYADKVVLAAGAWSPTLVELHEQCVSKAWVYGHIQLTPEEAAEYKNSPVVYNGDVGFFFEPNEHGVIKVCDEFPGFTRFKMHQPFGAKAPKRISVPRSHAKHPTDTIPDASEKSIRKAIATFLPKFTEKELFNRHLCWCTDTADAALLICEHPEWKNFVLATGDSGHSFKLLPNIGKHVVELLEGTLADDLAHAWRWRPGSGDALKSRRSAPAKDLADMPGWKHDDVVKSKL
B2: Cc95FX-62D/63H/106K/110L/113K/353S (protein)
chain: MAPSRANTSVIVVGGGGTIGSSTALHLVRSGYTPSNITVLDAYPIPSSQSAGNDLNKIMGIDHRNKVDLQLSLEARQMWREDDLFKEYFHNTGRLDCAHGEEGLAKLRQLYQKLLDANAGLEETTEWLDSEDEILKKMPLLSRDQIKGWKAVYSQDGGWLAAAKAINAIGEYLRAQGVKFGFGGAGSFKQPLLAEGVCIGVETVDGTRYYADKVVLAAGAWSPTLVELHEQCVSKAWVYGHIQLTPEEAAEYKNSPVVYNGDVGFFFEPNEHGVIKVCDEFPGFTRFKMHQPFGAKAPKRISVPRSHAKHPTDTIPDASEKSIRKAIATFLPKFTEKELFNRHLCWCTDTADSALLICEHPEWKNFVLATGDSGHSFKLLPNIGKHVVELLEGTLADDLAHAWRWRPGSGDALKSRRSAPAKDLADMPGWKHDDVVKSKL
B3: CFP-T7-H3 (protein)
chain: MTSNRADTRVIVVGGGGTIGSSTALHLVRSGYAPANITVLDTFEIPSAQSAGHDLNKIMGIALRNKVDLQMSLEARQMWKEDELFQPFFHNTGRMDCEHTPEGIEDLKKFYQALHDAGAGLEKTHAWLDNEDEILSKMPLLQRDQIQGWKAIWSQDGGWLAAAKAINAIGQFLKERGVKFGFGGAGSFKQPLFDDEGTTCIGVETADGTKYYADKVVLAAGAWSPTLVDLEDQCCSKAWVYAHIQLTPEEAAEYKGVPVVYNGEFGFFFEPDEFGVIKVCDEFPGFSRFKEHQPYGAPSPKRISVPRSHAKHPTDTYPDASEVSIKKAIATFLPRFQDKELFNRALCWCTDTADAALLMCEHPKWKNFILATGDSGHSFKILPNVGKYVVELIEGRLPEEMAYQWRWRPGGDALKSRRAAPPKDLADMPGWKHDPKL
B4: CFP-T7-H4 (protein)
chain: MTSNRADTRVIVVGGGGTIGSSTALHLVRSGYAPANITVLDTFEIPSAQSAGHDLNKIMGIALRNKVDLQMSLEARQMWKEDELFQPFFHNTGRMDCEHTPEGIEDLKKYYQALHDAGAGLEKTHAWLDNEDEILSKMPLLQRDQIQGWKAIWSQDGGWLAAAKAINAIGQFLKERGVKFGFGGAGSFKQPLFDDEGTTCIGVETADGTKYYADKVVLAAGAWSPTLVDLEDQCCSKAWVYAHIQLTPEEAAEYKGVPVVYNGEFGFFFEPDEFGVIKVCDEFPGFSRFKEHQPYGAPSPKRISVPRSHAKHPTDTYPDASEVSIKKAIATFLPRFQDKELFNRALCWCTDTADAALLMCEHPKWKNFILATGDSGHSFKILPNVGKYVVELIEGRLPEEMAYQWRWRPGGDALKSRRAAPPKDLADMPGWKHDPKL
B5: CFP-T7-H2-62Q (protein)
chain: MTSNRADTRVIVVGGGGTIGSSTALHLVRSGYAPANITVLDTFEIPSAQSAGHDLNKIMGIQLRNKVDLQMSLEARQMWKEDELFQPFFHNTGRMDCEHTPEGIEDLKKLYQALHDAGAGLEKTHAWLDNEDEILSKMPLLQRDQIQGWKAIWSQDGGWLAAAKAINAIGQFLKERGVKFGFGGAGSFKQPLFDDEGTTCIGVETADGTKYYADKVVLAAGAWSPTLVDLEDQCCSKAWVYAHIQLTPEEAAEYKGVPVVYNGEFGFFFEPDEFGVIKVCDEFPGFSRFKEHQPYGAPSPKRISVPRSHAKHPTDTYPDASEVSIKKAIATFLPRFQDKELFNRALCWCTDTADAALLMCEHPKWKNFILATGDSGHSFKILPNVGKYVVELIEGRLPEEMAYQWRWRPGGDALKSRRAAPPKDLADMPGWKHDPKL
B6: CFP-T7-H2-62E (protein)
chain: MTSNRADTRVIVVGGGGTIGSSTALHLVRSGYAPANITVLDTFEIPSAQSAGHDLNKIMGIELRNKVDLQMSLEARQMWKEDELFQPFFHNTGRMDCEHTPEGIEDLKKLYQALHDAGAGLEKTHAWLDNEDEILSKMPLLQRDQIQGWKAIWSQDGGWLAAAKAINAIGQFLKERGVKFGFGGAGSFKQPLFDDEGTTCIGVETADGTKYYADKVVLAAGAWSPTLVDLEDQCCSKAWVYAHIQLTPEEAAEYKGVPVVYNGEFGFFFEPDEFGVIKVCDEFPGFSRFKEHQPYGAPSPKRISVPRSHAKHPTDTYPDASEVSIKKAIATFLPRFQDKELFNRALCWCTDTADAALLMCEHPKWKNFILATGDSGHSFKILPNVGKYVVELIEGRLPEEMAYQWRWRPGGDALKSRRAAPPKDLADMPGWKHDPKL
B7: CFP-T7-H2-62N (protein)
chain: MTSNRADTRVIVVGGGGTIGSSTALHLVRSGYAPANITVLDTFEIPSAQSAGHDLNKIMGINLRNKVDLQMSLEARQMWKEDELFQPFFHNTGRMDCEHTPEGIEDLKKLYQALHDAGAGLEKTHAWLDNEDEILSKMPLLQRDQIQGWKAIWSQDGGWLAAAKAINAIGQFLKERGVKFGFGGAGSFKQPLFDDEGTTCIGVETADGTKYYADKVVLAAGAWSPTLVDLEDQCCSKAWVYAHIQLTPEEAAEYKGVPVVYNGEFGFFFEPDEFGVIKVCDEFPGFSRFKEHQPYGAPSPKRISVPRSHAKHPTDTYPDASEVSIKKAIATFLPRFQDKELFNRALCWCTDTADAALLMCEHPKWKNFILATGDSGHSFKILPNVGKYVVELIEGRLPEEMAYQWRWRPGGDALKSRRAAPPKDLADMPGWKHDPKL
B8: CFP-T7-H6 (protein)
chain: MTSNRADTRVIVVGGGGTIGSSTALHLVRSGYAPANITVLDTFEIPSAQSAGHDLNKIMGIDLRNKVDLQMSLEARQMWKEDELFQPFFHNTGRMDCEHTPEGIEDLKKLYQALHDAGAGLEKTHAWLDNEDEILSKMPLLQRDQIQGWKAIWSQDGGWLAAAKAINAIGQFLKERGVKFGFGGAGSFKQPLFDDEGTTCIGVETADGTKYYADKVVLAAGAWSPTLVDLEDQCCSKAWVYAHIQLTPEEAAEYKGVPVVYNGEFGFFFEPDEFGVIKVCDEFPGFSRFKEHQPYGAPSPKRISVPRSHAKHPTDTYPDASEVSIKKAIATFLPRFQDKELFNRALCWCTDTADAALLMCEHPKWKNFILATGDSGHSFKILPNVGKYVVELIEGRLPEEMAYQWRWRPGGDALKSRRAAPPKDLADMPGWKHDPKL

The target in this data set is T1, α-fructosyl-valyl-histidyl-leucyl-threonyl-proryl-glutamic acid.
T1 chain: VHLTPE
The protein B1 returned a αF6P oxidation activity (crude enzyme; αFVH oxidation activity = 100) (relative (αFVH = 100)) of 0, a αF6P/αFV of 0 and a αF6P/αFVH of 0.
As for B2, the αF6P oxidation activity (crude enzyme; αFVH oxidation activity = 100) (relative (αFVH = 100)) was 237, the αF6P/αFV was 0.0144 and the αF6P/αFVH amounted to 2.37.
Turning to B3, the αF6P oxidation activity (crude enzyme; αFVH oxidation activity = 100) (relative (αFVH = 100)) turned out to be 0.0298, the αF6P/αFV is 0.000205 and the αF6P/αFVH turned out to be 0.000298.
Taken in the same sequence, the figures for B4 were 0.0341, 0.000319 and 0.000341.
With B5, the αF6P oxidation activity ratio (crude enzyme; CFP-T7-H2 = 100) (relative (CFP-T7-H2 = 100)) stood at 11.
Same read-out and setting: as for B6, the figure is 21; as for B7, 120.
As to B8, the αF6P oxidation activity (crude enzyme; αFVH oxidation activity = 100) (relative (αFVH = 100)) turned out to be 3, the αF6P oxidation activity ratio (crude enzyme; CFP-T7-H2 = 100) (relative (CFP-T7-H2 = 100)) was found to be 513, the αF6P/αFV came to 0.00347 and the αF6P/αFVH amounted to 0.03.
